Results as given in the DeepSol protein solubility set.

Assay: soluble on expression in E. coli; label from the status in PepcDB or PDB records

| Sequence | soluble on expression in E. coli |
| --- | --- |
| MSELFKKLMDQIEMPLEIKNSSVFSSADIIEVKVHSLSRLWEFHFSFPELLPIEVYRELQTRLVNSFEKADIKATFDIRAETIDFSDDLLQDYYQQAFCEPLCNSASFKSSFSQLKVHYNGSQMIISAPQFVNNNHFRQNHLPRLEQQFSLFGF | not soluble |
| MIKLSPIDKYKQDLTRDDFLFDAAQENAVIHLQRLYDDLQSKPLAVSGFKKVLNRWKKVYKKQEQEPIKGLYFWGGVGRGKTYLVDTFFESLPFNNKMRVHFHRFMHRVHQELKSLSGQSDPLKIIAKKFADETQIICFDEFFVSDITDAMILGTLFEELFAHNVTLVATSNIIPDELYRNGLQRERFLPAIKLINKHTLIVNVDSGVDYRLRTLEQAEIFHYPLDAQADENLKHYFKQLSTDEGKSGQSIEIHNRPLKTVLVSDGVVYFDFSVLCESARSQGDYMEISQLYHTVLMANVKEMGPDSDDTTRRFIALVDEFYERNVKLIMSAELPLDDLYSGGRLAFEFKRCLSRLQEMQSHDYLASEHLPLEHHHHHH | not soluble |
| MELPILPTSVIGSYPKPRWLLRMYRLRDLGKIPEEDFKEAVKDASVSVLREHERAGVDIPWDGEMWRTEMTEHFTAKIGGFKFYGPVRVWGNAYFNKAAAVDKLEYKEPLVLEEFLWVKKNTTREVVKIPITGPYTIAEWSFNEYYPDKESFIMDLAKIINKELKMLENHGALYIQLDEPAMLNHPDEVPLAVEAINKAVKGIKIKVGLHVCYSNYYLLADYFDEIRVTQFALEFANRQFRDMDFLKKLSNKELGFGVVDVHNPRIESVEEIVKAIKKVFEYVEPELLYINPDCGMKLLDRNIAYNKLVNMVKATELVRKELEREGKKTTEFRTLKDILEHHHHHH | not soluble |
| ATALQCFCHLCTKDNFTCVTDGLCFVSVTETTDKVIHNSMCIAEIDLIPRDRPFVCAPSSKTGSVTTTYCCNQDHCNKIELPTTV | soluble |
| MEQLRGLYPPLAAYDSGWLDTGDGHRIYWELSGNPNGKPAVFIHGGPGGGISPHHRQLFDPERYKVLLFDQRGCGRSRPHASLDNNTTWHLVADIERLREMAGVEQWLVFGGSWGSTLALAYAQTHPERVSEMVLRGIFTLRKQRLHWYYQDGASRFFPEKWERVLSILSDDERKDVIAAYRQRLTSADPQVQLEAAKLWSVWEGETVTLLPSRESASFGEDDFALAFARIENHYFTHLGFLESDDQLLRNVPLIRHIPAVIVHGRYDMACQVQNAWDLAKAWPEAELHIVEGAGHSYDEPGILHQLMIATDRFAGK | soluble |
| MGSDKIHHHHHHMRKLALPLVAFLTGGLAACSSSDVVESQGITVENCGSVVNFDSPPSHIALMKSAAVPTLDALGVLDRVVTKAGAFPAGYYDADLSERVTDIPTLSNKIDASGHVLISKEVVVAANPDIVFGETDTINRASMASSNIPVVEEPAFCGSIDGDVSFDDVWSQISTYGTIFDRSTEADAYIATLKERVSEVSSRVTDSGKTVAVLYPTIGGGVTYAYGRGSMANPLVAEAGLTNVFADQSERVFEVTAEELISRNPDYIIVLHSDGSPSDIVAEVGNLQGSSALTALSENKVLPILMNFAEPPTPLAVDGLEKIIDFVETHP | not soluble |
| MLTLNYYVEITATPQRVWRVLTDAELYKRWAQAFSPQSQFEGEWEEGSDITFFDPDMGGTRAVIDSVQPLHRLEFHHVAIFNPDNRQQLDADIAAKWIGSREIYQIDTEDERLLLNITIHTHSDFVSMFNNGWEKALPLIKSICEETDSQLEHHHHHH | soluble |
| MSLAEKIKVLIVDDQVTSRLLLGDALQQLGFKQITAAGDGEQGMKIMAQNPHHLVISDFNMPKMDGLGLLQAVRANPATKKAAFIILTAQGDRALVQKAAALGANNVLAKPFTIEKMKAAIEAVFGALK | soluble |
| MVAIFDICAYFNNSILVIVDIIMTELLEPAARASTQETLTDQIFKKIQSAIVSGEIAAGSKISEPELARVYGISRGPLREAIHRLEGQKLVERTAHVGARVVSLSHQQLRELYQIRENLEGLACRLAAQSIDKQQILNLRDVLHLHAQDPDFKEGKGYYLQEGQDDFHYCIIKNCGNKTLEKMLCDELYHLIRMYRVQYSKTPNRPHRALSEHLHILNAIAEGDTELAELLMRRHIAASYRNIEQHFI | not soluble |
| MGSDKIHHHHHHMDNEIVSSWHQGELAVQQRAGTDERMAEIGPKFIREFMPQQHRDFFQSLSMIFVGYTDHCSNAYASVLFGAPGFIQSPTETELVINTQSTIGDFIIEDLREGDHIGLVGIEFDTKRRNRINGVITDINQKNIKVKVLQSYGNCPKYIQPKEFAPNRSYSEFTTVSLDQLSQKYREIISSADTFFIASSFDDGQKFRNRGVDVSHRGGEVGFVSINAAGQLLVDDYVGNGFFNTLGNLLENPIASLLFCDWQTGHVLKIAVSSEILWHDEQQDSVVLAAGKVKRSLCFTPIKIEQFNNGLAYIQQF | not soluble |
| MAAKKRGLGRGLDALLGGSSPAKLQEEAVQADRRELQQIPLDLMQRGKYQPRRDMDPQALEELAQSIKAQGVMQPIVVRPIANGRYEIIAGERRWRASQQAGLEKIPALVRDVPDEAAIAMALIENIQREDLNPIEEAAALQRLQQEFQLTQQQVAEAVGKSRATITNLLRLIGLPEEIKTLLSHGDLEMGHARALLGLPAERQVEGARHVVAHGLTVRQTEALVRQWTHAPGKPAGPVKSDPDIARLEQRLAERLGASVQIRHGQKGKGQLVIRYSSLDELQGVLAHIR | not soluble |
| MAHHHHHHMWRRGVAAVPLPLWQGKLLQLVHHRALSTDTTGDEATAWSRAMEAKYGTGTYKLFRPLYKDLSDEMRLEAYTKPPAPMQGWSVHHDEAVNLAIFSHKGDSRSRTARVVAYSPITVENPESLNPLLYFMDWYPINVLMERNGVVVHFSIASTEGGMHMRNVRVYKAQDELSPNDPEKQDLPNRDSECERLMSTTDDAAWVRHNLYYDGPCLWHLELDMLNELYDVMQDHGVTLDWVRWVAEWVHYLEHVSYVRWALGVLQELIPVDERGPEDDFLTFEEKEALATPPEEWLEAHYI | not soluble |
| MYADRDLPGAGGLAVRVIPCLDVDDGRVVKGVNFENLRDAGDPVELAAVYDAEGADELTFLDVTASSSGRATMLEVVRRTAEQVFIPLTVGGGVRTVADVDSLLRAGADKVAVNTAAIACPDLLADMARQFGSQCIVLSVDARTVPVGSAPTPSGWEVTTHGGRRGTGMDAVQWAARGADLGVGEILLNSMDADGTKAGFDLALLRAVRAAVTVPVIASGGAGAVEHFAPAVAAGADAVLAASVFHFRELTIGQVKAALAAEGITVR | not soluble |
| MLKLRFPLPVFRNAREIANGRNARMALKGLVANRAALIISPSFGSSQYFEQVVRLINAQSVRVIERSWQGEPSVEELSGVIGELEDFKPDYILALGGGSIIDGAKLAWLFYECPTLESELLYRPFALPSLRGRAKFAAIPTTVGAGSEVSSAAVMLDSVTNSKKAVVTHDFLPDLVILDPDLVSEVPPKVLKTTVADALSHAIEGYVSLIDNPLMNTFAEQAVSIIYRYRHQFSNDNWSSEMLSELQQAAMFAGWVQNHCIVGLSHAIAHQLGTFNIGHGLANGLLMPAVINFNYREHTAATKYEQLIYKSGLPNKEALLELFEVLVGEQKTDMHFSEQQLTTIAENALLDPAAKSNPVRFTENDVKEIVKQCL | not soluble |
| MLKLKFNEEGLIPVIAQDYRTGEVRMLAYANEEAIKKTLETGYAHYYSRSRKKIWKKGETSGELQKVIEVRVDCDEDALIYVIEQEKDRACHTGERNCFFRDIEGNKVEKPLPFEVLPRLQDVIREKIERKEENSYTAKLVSQGKERVFQKFGEEAVETLIALMKGEKEEVIYESADMLYTFLVSLSVSGIDIKEVMEELIRRFK | soluble |
